Results reported in patent US20020142457A1, “Cell having the potentiality of differentiation into cardiomyocytes” (priority 1999, published 2002).
Ends that are not written are not given here.

B1: FGF-8: fibroblast growth factor 8, cytokine (protein, UniProt P55075 23-233, looked up)
Fibroblast growth factor 8: QEGPGRGPALGRELASLFRAGREPQGVSQQHVREQSLVTDQLSRRLIRTYQLYSRTSGKHVQVLANKRINAMAEDGDPFAKLIVETDTFGSRVRVRGAETGLYICMNKKGKLIAKSNGKGKDCVFTEIVLENNYTALQNAKYEGWYMAFTRKGRPRKGSKTRQHQREVHFMKRLPRGHHTTEQSLRFEFLNYPPFTRSLRGSQRTWAPEPR
B2: midkine: cytokine, amino acid sequence SEQ ID NO:68 (protein, listed as Homo sapiens)
chain: MQHRGFLLLTLLALLALTSAVAKKKDKVKKGGPGSECAEWAWGPCTPSSKDCGVGFREGTCGAQTQRIRCRVPCNWKKEFGADCKYKFENWGACDGGTGTKVRQGTLKKARYNAQCQETIRVTKPCTPKTKAKAKAKKGKGKD
modifications: CDS (1)..(432)
B3: BMP4: bone morphogenic protein 4, cytokine (protein, UniProt P12644 293-408, looked up)
Bone morphogenetic protein 4: SPKHHSQRARKKNKNCRRHSLYVDFSDVGWNDWIVAPPGYQAFYCHGDCPFPLADHLNSTNHAIVQTLVNSVNSSIPKACCVPTELSAISMLYLDEYDKVVLKNYQEMVVEGCGCR

Legend:
Assay type in all cases: cell-based, mouse
[1] = test system: Nkx2.5/Csx and GATA4 co-forced expressing bone marrow cells (BMSC-Nkx2.5-GATA4); assay: Differentiation of BMSC-Nkx2.5-GATA4 with cytokines, phase-contrast microscope; conditions: cytokine 10 ng/ml, four weeks; for cells differentiated into myotubes: BMSC-Nkx2.5-GATA4, 5-aza-C 3 μM in all dishes; for beating cardiomyocytes: BMSC-Nkx2.5-GATA4, 5-aza-C 3 μM
Description: The Nkx2.5/Csx and GATA4 co-forced expressing bone marrow cells (BMSC-Nkx2.5-GATA4) having the potential to differentiate into cardiomyocytes were plated into a 60-mm culture dish at a density of 2×10^4 cells/ml and cultured at 33° C. in a 5% CO2-incubator.
On the next day, 5-aza-C was added to the culture medium to give a final concentration of 3 μM. Furthermore, 5 treatments differing from each other were carried out by adding FGF-8 to give a final concentration of 10 ng/ml (culture dish I); adding ET-1 to give a final concentration of 10 ng/ml (culture dish J); adding midkine to give a final concentration of 10 ng/ml (culture dish K); adding BMP4 to give a final concentration of 10 ng/ml (culture dish L); and adding nothing (culture dish M), followed by culturing.
On the next day, the medium was replaced with a fresh medium to eliminate 5-aza-C. Then, FGF-8 was added to the culture dish I to give a final concentration of 10 ng/ml; ET-1 was added to the culture dish J to give a final concentration of 10 ng/ml; midkine was added to the culture dish K to give a final concentration of 10 ng/ml; and BMP4 was added to the culture dish L to give a final concentration of 10 ng/ml, followed by culturing. Two and four days thereafter, furthermore, the medium was replaced, and the FGF-8, ET-1, midkine or BMP4 was added.
As a result, about 30% of the cells in the culture dish containing 5-aza-C alone were converted into myotubes, while about 50% of the cells in the culture dishes containing FGF-8, ET-1, midkine or BMP4 differentiated into myotubes respectively. On the other hand, the addition of FGF-8, ET-1, midkine or BMP4 caused no increase in beating cardiomyocytes.

[2] = test system: bone marrow cell (BMSC-MesP1); assay: Quantitative PCR of genes expressed in myotube-like cells from BMSC-MesP1; conditions: BMSC-MesP1, 5-aza-C 3 μM, cytokine 10 ng/ml
Description: Next, RNA was recovered from the thus obtained myotube-like cells, and genes expressing in the myotube-like cells were analyzed by quantitative PCR using the synthetic oligonucleotides shown in SEQ ID NOS:71 to 78. As a result, expression of ANP as a gene specific for a myocardium was accelerated by the forced expression of MesP1.

[3] = test system: Nkx2.5/Csx and GATA4 co-forced expressing bone marrow cells (BMSC-Nkx2.5-GATA4); assay: Quantitative PCR of genes expressed in myotubes from BMSC-Nkx2.5-GATA4; conditions: BMSC-Nkx2.5-GATA4, 5-aza-C 3 μM, cytokine 10 ng/ml
Source text: From the myotubes thus obtained, RNAs were collected and genes expressed in the myotubes were subjected to quantitative PCR analysis using the synthetic oligonucleotides represented by SEQ ID NOS:71 to 78.

Molecule	cells differentiated into myotubes [1]	beating cardiomyocytes [1]	expression of ANP accelerated by the forced expression of MesP1 [2]	expression of cTnI and ANP promoted by forced expression of Nkx2.5/Csx and GATA4 [3]
ET-1: endothelin 1, cytokine (CSCSSLMDKECVYFCHLDIIW; ends and bridges not checked; cysteine pairing not given here; UniProt P05305 53-73, looked up)	about 50%	no increase	did not further accelerate	did not further promote
B1	about 50%	no increase	did not further accelerate	did not further promote
B2	about 50%	no increase	did not further accelerate	did not further promote
B3	about 50%	no increase	did not further accelerate	did not further promote
